Results as given in US7183110B2, “Antibody immunoreactive with a 5-enolpyruvylshikimate-3-phosphate synthase” (Monsanto Technology LLC, priority 1990, dated 2007).

B1: B. subtilis 1A2: Class II EPSPS from Bacillus subtilis 1A2 (SEQ ID NO:42) (protein, listed as Bacillus subtilis)
chain: MKRDKVQTLHGEIHIPGDKSISHRSVMFGALAAGTTTVKNFLPGADCLSTIDCFRKMGVHIEQSSSDVVIHGKGIDALKEPESLLDVGNSGTTIRLMLGILAGRPFYSAVAGDESIAKRPMKRVTEPLKKMGAKIDGRAGGEFTPLSVSGASLKGIDYVSPVASAQIKSAVLLAGLQAEGTTTVTEPHKSRDHTERMLSAFGVKLSEDQTSVSIAGGQKLTAADIFVPGDISSAAFFLAAGAMVPNSRIVLKNVGLNPTRTGIIDVLQNMGAKLEIKPSADSGAEPYGDLIIETSSLKAVEIGGDIIPRLIDEIPIIALLATQAEGTTVIKDAAELKVKETNRIDTVVSELRKLGAEIEPTADGMKVYGKQTLKGGAAVSSHGDHRIGMMLGIASCITEEPIEIEHTDAIHVSYPTFFEHLNKLSKKS
B2: Petunia: native Petunia EPSPS, a Class I EPSPS (protein)
chain: KPSEIVLQPIKEISGTVKLPGSKSLSNRILLLAALSEGTTVVDNLLSSDDIHYMLGALKTLGLHVEEDSANQRAVVEGCGGLFPVGKESKEEIQLFLGNAGTAMRPLTAAVTVAGGNSRYVLDGVPRMRERPISDLVDGLKQLGAEVDCFLGTKCPPVRIVSKGGLPGGKVKLSGSISSQYLTALLMAAPLALGDVEIEIIDKLISVPYVEMTLKLMERFGISVEHSSSWDRFFVRGGQKYKSPGKAFVEGDASSASYFLAGAAVTGGTITVEGCGTNSLQGDVKFAEVLEKMGAEVTWTENSVTVKGPPRSSSGRKHLRAIDVNMNKMPDVAMTLAVVALYADGPTAIRDVASWRVKETERMIAICTELRKLGATVEEGPDYCIITPPEKLNVTDIDTYDDHRMAMAFSLAACADVPVTINDPGCTRKTFPNYFDVLQQYSKH
modifications: Petunia x hybrida
B3: synthetic CP4 gene: EPSPS enzyme expressed in E. coli from the synthetic CP4 gene (SEQ ID NO:9) (protein, UniProt Q9R4E4 1-455, looked up)
3-phosphoshikimate …: MSHGASSRPATARKSSGLSGTVRIPGDKSISHRSFMFGGLASGETRITGLLEGEDVINTGKAMQAMGARIRKEGDTWIIDGVGNGGLLAPEAPLDFGNAATGCRLTMGLVGVYDFDSTFIGDASLTKRPMGRVLNPLREMGVQVKSEDGDRLPVTLRGPKTPTPITYRVPMASAQVKSAVLLAGLNTPGITTVIEPIMTRDHTEKMLQGFGANLTVETDADGVRTIRLEGRGKLTGQVIDVPGDPSSTAFPLVAALLVPGSDVTILNVLMNPTRTGLILTLQEMGADIEVINPRLAGGEDVADLRVRSSTLKGVTVPEDRAPSMIDEYPILAVAAAFAEGATVMNGLEELRVKESDRLSAVANGLKLNGVDCDEGETSLVVRGRPDGKGLGNASGAAVATHLDHRIAMSFLVMGLVSENPVTVDDATMIATSFPEFMDLMAGLGAKIELSDTKAA
B4: pMON21133: B. subtilis EPSPS (aroE) subcloned from ECE13 into pUC118, expressed in E. coli GB100 (protein, UniProt P54374 1-280, looked up)
Shikimate dehydrogenase …: MKKLYGVIGNPIGHSMSPDIHNASLKDLGLDGHYHAFKVEENDLEDAVKGIRALGVQGINVTVPHKVSIMDYLDHIDESAKVLGAVNTVRREGDKLVGYNTDGEGFVKSLMKVLDKPISELSFLMIGAGGAARAIFTTIVRNTPKKFDICNRTLEKAKRLTEATPSFHNKEVLSIKEAEERLEQYDVIIHTTSVGMYPNVDDVPLSLQRAASSAVVCDIVYNPIQTALLKEASQKGLKTLDGVGMFVEQAALSFQLWTGQEPNIEKMRSIVIGKLGGTEC
B5: pMON21132: B. subtilis EPSPS from the PCR-derived aroE clone, expressed in E. coli GB100 (protein, UniProt P54374 1-280, looked up)
Shikimate dehydrogenase …: MKKLYGVIGNPIGHSMSPDIHNASLKDLGLDGHYHAFKVEENDLEDAVKGIRALGVQGINVTVPHKVSIMDYLDHIDESAKVLGAVNTVRREGDKLVGYNTDGEGFVKSLMKVLDKPISELSFLMIGAGGAARAIFTTIVRNTPKKFDICNRTLEKAKRLTEATPSFHNKEVLSIKEAEERLEQYDVIIHTTSVGMYPNVDDVPLSLQRAASSAVVCDIVYNPIQTALLKEASQKGLKTLDGVGMFVEQAALSFQLWTGQEPNIEKMRSIVIGKLGGTEC
B6: PG2982: Class II EPSPS enzyme from Pseudomonas sp. strain PG2982 (SEQ ID NO:7) (protein, listed as Pseudomonas sp.)
chain: MSHSASPKPATARRSEALTGEIRIPGDKSISHRSFMFGGLASGETRITGLLEGEDVINTGRAMQAMGAKIRKEGDVWIINGVGNGCLLQPEAALDFGNAGTGARLTMGLVGTYDMKTSFIGDASLSKRPMGRVLNPLREMGVQVEAADGDRMPLTLIGPKTANPITYRVPMASAQVKSAVLLAGLNTPGVTTVIEPVMTRDHTEKMLQGFGADLTVETDKDGVRHIRITGQGKLVGQTIDVPGDPSSTAFPLVAALLVEGSDVTIRNVLMNPTRTGLILTLQEMGADIEVLNARLAGGEDVADLRVRASKLKGVVVPPERAPSMIDEYPVLAIAASFAEGETVMDGLDELRVKESDRLAAVARGLEANGVDCTEGEMSLTVRGRPDGKGLGGGTVATHLDHRIAMSFLVMGLAAEKPVTVDDSNMIATSFPEFMDMMPGLGAKIELSIL

Key:
[1] = tested on: EPSPS enzymes; experiment: Kinetic characterization of EPSPS enzymes (Km PEP, Ki glyphosate); type: biochemical; conditions: for Ki/Km: Ki glyphosate / Km PEP; for Km: Km of the EPSPS enzyme for phosphoenolpyruvate, PEP ranges tested in table footnotes
Description: The EPSPS enzymes from these microorganisms were then subjected to further study and analysis.
When the change introduced into the Petunia EPSPS (GA101) was introduced into a number of other EPSPS enzymes, similar changes in kinetics were observed, an elevation of the Ki for glyphosate and of the Km for PEP.
All protein purification procedures were carried out at 3–5° C. EPSPS enzyme assays were performed using either the phosphate release or radioactive HPLC method, as previously described in Padgette et al., 1987, using 1 mM phosphoenol pyruvate (PEP, Boehringer) and 2 mM shikimate-3-phosphate (S3P) substrate concentrations. For radioactive HPLC assays, ^14C-PEP (Amersham) was utilized. S3P was synthesized as previously described in Wibbenmeyer et al. 1988. N-terminal amino acid sequencing was performed by loading samples onto a Polybrene precycled filter in aliquots while drying. Automated Edman degradation chemistry was used to determine the N-terminal protein sequence, using an Applied Biosystems Model 470A gas phase sequencer (Hunkapiller et al., 1983) with an Applied Biosystems 120A PTH analyzer.

[2] = biological target: T1, B. subtilis EPSPS (Bacillus subtilis, UniProt P20691); experiment: EPSPS assay and kinetics of B. subtilis EPSPS in crude bacterial extract; type: biochemical; conditions: for EPSPS specific activity: crude extract
T1 construct: Standard EPSPS assay reactions contained crude bacterial extract; endogenous in cells; host or cells: Bacillus subtilis 1A2 crude extract; some values from E. coli GB100 carrying pMON21133 (subclone) or pMON21132 (PCR clone)
Description: Bacillus subtilis 1A2 (prototroph) was obtained from the Bacillus Genetic Stock Center at Ohio State University. Standard EPSPS assay reactions contained crude bacterial extract with, 1 mM phosphoenolpyruvate (PEP), 2 mM shikimate-3-phosphate (S3P), 0.1 mM ammonium molybdate, 5 mM potassium fluoride, and 50 mM HEPES, pH 7.0 at 25° C. One unit (U) of EPSPS activity is defined as one μmol EPSP formed per minute under these conditions. For kinetic determinations, reactions contained crude bacterial, 2 mM S3P, varying concentrations of PEP, and 50 mM HEPES, pH 7.0 at 25° C. […] When the assays were performed in the presence of 1 mM glyphosate, 100% of the EPSPS activity was retained. The appKm(PEP) of the B. subtilis EPSPS was determined by measuring the reaction velocity at varying concentrations of PEP. The results were analyzed graphically by the hyperbolic, Lineweaver-Burk and Eadie-Hofstee plots which yielded appKm(PEP) values of 15.3 μM, 10.8 μM and 12.2 μM, respectively. These three data treatments are in good agreement, and yield an average value for appKm(PEP) of 13 μM. The appKi(glyphosate) was estimated by determining the reaction rates of B. subtilis 1A2 EPSPS in the presence of several concentrations of glyphosate, at a PEP concentration of 2 μM.
The other approach to the isolation of the B. subtilis aroE gene, subcloning from ECE13 into pUC118, was performed as follows: • (i) Cut ECE13 and pUC with XmaI and SphI. • (ii) Isolate 1700 bp aroE fragment and 2600 bp pUC118 vector fragment. • (iii) Ligate fragments and transform into GB100. The subclone was designated pMON21133 and the PCR-derived clone was named pMON21132. Clones from both approaches were first confirmed for complementation of the aroA mutation in E. coli GB100. […] These specific activities reflect the expected types of expression levels of the two vectors. […] The appKm(PEP) and the appKi(glyphosate) of the subcloned B. subtilis EPSPS (pMON21133) were determined as described above. […] Characterization of the EPSPS Gene from Staphylococcus aureus

[3] = tested on: rabbit anti-EPSPS antibody; experiment: Western analysis with rabbit anti-EPSPS antibody to the Petunia EPSPS protein; type: binding; conditions: crude extracts 50 μg protein; control Petunia EPSPS 20 ng; Protein A-125I development
Description: The presence of EPSPS activity in these extracts was confirmed by enzyme assay. This surprising result, indicating a lack of similarity between the EPSPS's from these bacterial isolates and those previously studied, coupled with the combination of a low Km for PEP and a high Ki for glyphosate, illustrates that these new EPSPS enzymes are different from known EPSPS enzymes (now referred to as Class I EPSPS).

[4] = biological target: T2, CP4 EPSPS (Agrobacterium sp., UniProt Q9R4E4, S2A); experiment: EPSPS activity from native and synthetic CP4 EPSPS genes expressed in E. coli; type: biochemical, Agrobacterium sp. strain CP4
T2 construct: made in house; host or cells: E. coli, PRecA-gene10L vector
T2 sequence (Q9R4E4 whole entry S2A): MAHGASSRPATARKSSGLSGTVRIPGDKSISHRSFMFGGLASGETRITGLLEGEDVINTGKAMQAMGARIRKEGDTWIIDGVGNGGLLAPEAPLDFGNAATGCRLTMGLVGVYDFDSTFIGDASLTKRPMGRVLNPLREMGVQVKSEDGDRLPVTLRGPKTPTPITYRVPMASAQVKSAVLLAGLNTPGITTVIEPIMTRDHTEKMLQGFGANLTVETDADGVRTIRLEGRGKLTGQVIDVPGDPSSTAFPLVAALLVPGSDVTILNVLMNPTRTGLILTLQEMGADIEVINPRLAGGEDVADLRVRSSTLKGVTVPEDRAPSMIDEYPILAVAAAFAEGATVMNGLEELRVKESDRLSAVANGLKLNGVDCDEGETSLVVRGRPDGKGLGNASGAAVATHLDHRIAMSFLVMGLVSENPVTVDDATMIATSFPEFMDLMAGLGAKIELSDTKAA
Description: A synthetic CP4 gene was designed to change as completely as possible those inimical sequences discussed above. In summary, the gene sequence was redesigned to eliminate as much as possible the following sequences or sequence features (while avoiding the introduction of unnecessary restriction sites): stretches of G's and C's of 5 or greater; and A+T rich regions (predominantly) that could function as polyadenylation sites or potential RNA destabilization region The sequence of this gene is shown in FIG. 8 (SEQ ID NO:9). This coding sequence was expressed in E. coli from the RecA promoter and assayed for EPSPS activity and compared with that from the native CP4 EPSPS gene. […] The N-terminus of the coding sequence was mutagenized to place an SphI site at the ATG to permit the construction of the CTP2-CP4 synthetic fusion for chloroplast import. The following primer was used to accomplish this mutagenesis:
The EPSPS gene was isolated originally from Agrobacterium sp. strain CP4 and expresses a highly tolerant enzyme. The original gene contains sequences that could be inimical to high expression of the gene in some plants. […] The high G+C % in the CP4 EPSPS gene could also result in the formation of strong hairpin structures that may affect expression or stability of the RNA. A plant preferred version of the gene was synthesized and used for these vectors. This coding sequence was expressed in E. coli from a PRecA-gene10L vector (Olins et al., 1988) and the EPSPS activity was compared with that from the native CP4 EPSPS gene. […] The N-terminus of the coding sequence was then mutagenized to place an SphI site (GCATGC) at the ATG to permit the construction of the CTP2-CP4 synthetic fusion for chloroplast import. This change had no apparent effect on the in vivo activity of CP4 EPSPS in E. coli as judged by complementation of the aroA mutant. A CTP-CP4 EPSPS fusion was constructed between the Arabidopsis thaliana EPSPS CTP (Klee et al., 1987) and the CP4 EPSPS coding sequences. The Arabidopsis CTP was engineered by site-directed mutagenesis to place a SphI restriction site at the CTP processing site. This mutagenesis replaced the Glu-Lys at this location with Cys-Met. The CTP2-CP4 EPSPS fusion was tested for import into chloroplasts isolated from Lactuca sativa using the methods described previously (della-Cioppa et al., 1986: 1987).

[5] = 2 mM S3P, varying PEP, pH 7.0, 25° C.
[6] = 1 mM PEP, 2 mM S3P, pH 7.0, 25° C.

Molecule	Ki/Km [1]	Km [1]	EPSPS specific activity [2, 6]	further results
B1	33.8	13 µM	0.003 U/mg	EPSPS activity retained in the presence of 1 mM glyphosate ([2]; 1 mM glyphosate, 1 mM PEP, 2 mM S3P): 100%; appKm(PEP), Eadie-Hofstee plot [2, 5]: 12.2 µM; appKm(PEP), Lineweaver-Burk plot [2, 5]: 10.8 µM; appKm(PEP), hyperbolic plot [2, 5]: 15.3 µM; average value for appKm(PEP) ([2]; average of three data treatments): 13 µM
B2	0.08	5 µM		signal in Western analysis with rabbit anti-EPSPS antibody [3]: readily detected
B3				appKm for PEP ([4]; expressed in E. coli from a PRecA-gene10L vector): 12.7 µM; Km ([4]; expressed in E. coli from the RecA promoter, read-out: apparent Km for PEP): 12.7 µM
B4			0.044 U/mg	
B5			0.71 U/mg	
B6	~8–40	2.1 to 3.1 µM		
